Values quoted from earlier work, collected in paper PMC7956452.

Target: RNA polymerase II CTD phosphorylated heptapeptide (Homo sapiens)

PQBP-1 (from UniProt O60828)
Kd: 154 µM
